Measurements reported in article PMC8245513, “Recapitulation of selective nuclear import and export with a perfectly repeated 12mer GLFG peptide” (Nature Communications, 2021).

B1: NES(PKI)-EGFP (other)
chain: SNELALKLAGLDIN
modifications: PKI-type NES core with short flanks, mEGFP carrier left out; the exact construct (PKI01, pTG-A450) is not printed and may be an optimised NES variant
B2: prf.GLFG_(52x12) (other)
chain: GGLFGGNTQPATGGLFGGNTQPATGGLFGGNTQPATGGLFGGNTQPATGGLFGGNTQPATGGLFGGNTQPATGGLFGGNTQPATGGLFGGNTQPATGGLFGGNTQPATGGLFGGNTQPATGGLFGGNTQPATGGLFGGNTQPATGGLFGGNTQPATGGLFGGNTQPATGGLFGGNTQPATGGLFGGNTQPATGGLFGGNTQPATGGLFGGNTQPATGGLFGGNTQPATGGLFGGNTQPATGGLFGGNTQPATGGLFGGNTQPATGGLFGGNTQPATGGLFGGNTQPATGGLFGGNTQPATGGLFGGNTQPATGGLFGGNTQPATGGLFGGNTQPATGGLFGGNTQPATGGLFGGNTQPATGGLFGGNTQPATGGLFGGNTQPATGGLFGGNTQPATGGLFGGNTQPATGGLFGGNTQPATGGLFGGNTQPATGGLFGGNTQPATGGLFGGNTQPATGGLFGGNTQPATGGLFGGNTQPATGGLFGGNTQPATGGLFGGNTQPATGGLFGGNTQPATGGLFGGNTQPATGGLFGGNTQPATGGLFGGNTQPATGGLFGGNTQPATGGLFGGNTQPATGGLFGGNTQPATGGLFGGNTQPATGGLFGGNTQPATGGLFGGNTQPATC
notes: C-terminal Cys residue fused for maleimide labelling; also called GLEBS-free, perfectly repeated FG variant; ultimately simplified FG domain

Assays:
human Exportin 1 = molecular target: T1, human Exportin 1 (human, UniProt O14980 1-1071); experiment: NTR-dependent recruitment of a fluorescent cargo into FG phase particles (confocal laser-scanning microscopy); prf.GLFG_(52x12) phase challenged with import cargo (IBB-EGFP; IBB-MBP-GFP-M9) or export cargo (NES-EGFP + RanQ69L) in the absence or presence of the corresponding NTRs (Impβ, transportin, Xpo1); conditions: both partners purified
T1 construct: Exportin 1 (Xpo1/CRM1), human; also called hsXpo1; Xpo1; source: bacterial expression construct, purified (native Ni(II) chelate chromatography)
T1 sequence (O14980 whole entry): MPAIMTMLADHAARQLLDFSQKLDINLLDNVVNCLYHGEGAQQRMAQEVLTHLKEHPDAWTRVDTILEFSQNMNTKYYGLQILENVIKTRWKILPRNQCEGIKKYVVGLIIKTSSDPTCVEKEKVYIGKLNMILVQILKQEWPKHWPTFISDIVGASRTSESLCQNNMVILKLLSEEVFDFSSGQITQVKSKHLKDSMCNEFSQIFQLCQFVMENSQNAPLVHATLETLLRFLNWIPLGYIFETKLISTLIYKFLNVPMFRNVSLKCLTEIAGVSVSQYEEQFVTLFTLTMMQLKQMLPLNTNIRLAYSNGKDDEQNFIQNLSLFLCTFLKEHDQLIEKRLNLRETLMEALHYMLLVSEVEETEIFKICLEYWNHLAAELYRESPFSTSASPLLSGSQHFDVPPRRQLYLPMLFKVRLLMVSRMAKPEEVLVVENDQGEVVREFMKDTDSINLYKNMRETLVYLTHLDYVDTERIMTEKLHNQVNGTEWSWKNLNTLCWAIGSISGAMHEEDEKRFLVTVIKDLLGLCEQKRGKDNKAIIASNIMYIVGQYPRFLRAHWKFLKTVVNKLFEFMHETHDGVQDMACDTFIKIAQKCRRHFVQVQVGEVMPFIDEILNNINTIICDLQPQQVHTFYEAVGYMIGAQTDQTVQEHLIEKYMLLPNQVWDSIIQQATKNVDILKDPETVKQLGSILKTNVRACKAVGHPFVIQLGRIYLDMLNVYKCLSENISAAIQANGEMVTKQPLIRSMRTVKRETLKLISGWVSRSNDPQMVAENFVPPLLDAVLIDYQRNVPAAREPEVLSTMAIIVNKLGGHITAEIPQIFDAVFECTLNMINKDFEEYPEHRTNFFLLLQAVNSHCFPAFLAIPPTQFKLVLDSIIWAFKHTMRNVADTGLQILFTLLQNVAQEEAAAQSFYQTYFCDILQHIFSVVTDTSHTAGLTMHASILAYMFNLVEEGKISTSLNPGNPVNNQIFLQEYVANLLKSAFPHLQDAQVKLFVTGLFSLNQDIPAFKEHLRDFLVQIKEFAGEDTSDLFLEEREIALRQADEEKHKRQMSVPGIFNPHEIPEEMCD

[1] = molecular target: T2, Alexa Fluor 488-labeled rat NTF2 (rat, UniProt P61972 1-127, Alexa Fluor 488 label (site not stated)); experiment: partitioning into FG phase particles (FG particle permeation assay, confocal laser-scanning microscopy); FG domain diluted out of 4 M guanidinium hydrochloride into 50 mM Tris/HCl pH 7.5, 150 mM NaCl, 5 mM DTT, 5 µM FG domain; fluorescent probe in the buffer (mCherry 5 µM, probes with partition coefficient ≥2 at 0.75 µM); particles sedimented 60 min; ratio of fluorescence inside to outside the particles; 21 °C; conditions: both partners purified
T2 construct: nuclear transport factor 2 (NTF2), rat, 30-kDa nuclear transport receptor (dimer); The methods say that most NTRs were His-tagged fusions whose tags were cleaved off; also called Alexa488-labeled NTF2; source: bacterial expression construct, purified (native Ni(II) chelate chromatography)
T2 sequence (P61972 whole entry, the tested form may be a part): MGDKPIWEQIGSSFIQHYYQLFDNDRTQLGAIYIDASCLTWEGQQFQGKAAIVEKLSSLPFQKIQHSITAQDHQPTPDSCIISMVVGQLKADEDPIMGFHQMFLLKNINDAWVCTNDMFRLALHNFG

Binder	fold stimulation of the cargo's entry into the prf.GLFG_(52x12) phase by Xpo1 (with RanQ69L) (human Exportin 1) [fold]	binding result [1]
B1	3500	
B2		binds
